Test results from the supplement of paper PMC7125110.
± gives the standard error. For some assays here: This sample holds only a part of the variants without activity.

B1: glmS ribozyme (parent)
chain: AUAAAAGCGCCAGAACUACAGAAAUGUAGUUGACGAGGAGGAGGUUUAUCGAAUUUUCGGCGGAUGCCUCCAAA

Columns and labels:
Conditions in all cases: with glucosamine-6-phosphate
glucosamine-6-phosphate [1] = variants of: B1; assay: kcat; higher = faster cleavage; RNA array
Summary of the method: (§1)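 kobs was derived by fitting per-tile medians to one- or two-exponential decays after normalising signals to baseline and to non-cleaving reference variants. Those signals came from barcoded ribozyme variants transcribed in situ by E. coli RNA polymerase on sequenced MiSeq chips, followed through a hybridised Cy3 probe at 37 °C and imaged over ~14 h. Glucosamine-6-phosphate (40 μM to 10 mM) in HEPES/KCl/Mg(OAc)2 buffer was flowed in. Weighted Michaelis–Menten fits across concentrations then gave kcat and KM.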

glucosamine-6-phosphate [2] = variants of: B1; assay: KM; higher = weaker cofactor use; RNA array
Summary of the method: as §1

glucosamine-6-phosphate [3] = variants of: B1; assay: self-cleavage kobs at 640 uM GlcN6P; higher = faster cleavage; RNA array
Summary of the method: as §1

glucosamine-6-phosphate [4] = variants of: B1; assay: self-cleavage kobs at 2500 uM GlcN6P; higher = faster cleavage; RNA array
Summary of the method: as §1

glucosamine-6-phosphate [5] = variants of: B1; assay: self-cleavage kobs at 10000 uM GlcN6P; higher = faster cleavage; RNA array
Summary of the method: as §1

glucosamine-6-phosphate [6] = variants of: B1; assay: self-cleavage kobs at 40 uM GlcN6P; higher = faster cleavage; RNA array
Summary of the method: as §1

glucosamine-6-phosphate [7] = variants of: B1; assay: self-cleavage kobs at 160 uM GlcN6P; higher = faster cleavage; RNA array
Summary of the method: as §1

Variant | kcat (glucosamine-6-phosphate [1]) [s⁻¹] | KM (glucosamine-6-phosphate [2]) [µM] | self-cleavage kobs at 640 uM GlcN6P (glucosamine-6-phosphate [3]) [s⁻¹] | self-cleavage kobs at 2500 uM GlcN6P (glucosamine-6-phosphate [4]) [s⁻¹] | self-cleavage kobs at 10000 uM GlcN6P (glucosamine-6-phosphate [5]) [s⁻¹] | self-cleavage kobs at 40 uM GlcN6P (glucosamine-6-phosphate [6]) [s⁻¹] | self-cleavage kobs at 160 uM GlcN6P (glucosamine-6-phosphate [7]) [s⁻¹]
AUAAAAGCGCCAGAACUACAGAAAUGUAAUUGACGAGGAGGAGGUUUAUCGAAUUUUCGGCGGAUGGCUCCAAA [G29A C67G] | 0.00016 ± 1.6e-05 | 1710 ± 390 | 4.67e-05 ± 1e-05 | 8.59e-05 ± 1.7e-05 | 0.000145 ± 2.5e-05 |  | 
AUAAAAGCGCCAGAACUACAGAAAUGUAAUUGACGAGGAGGAGGUUUAUCGAAUUUUCGGCGGAUGUCUCGAAA [G29A C67U C71G] | 4.81e-05 ± 2.2e-05 |  | 9.19e-05 ± 4.3e-05 |  |  |  | 
AUAAAAGCGCCAGAACUACAGAAAUGUAAUUGACGAGGAGGAGGUUUAUCGAAUUUUCUGCGGAUGCCUCCAAA [G29A G59U] | 1.01e-05 ± 3.5e-06 |  | < 1e-05 |  |  |  | 
AUAAAAGCGCCAGAACUACAGAAAUGUAAUUGACGAGGAGGAGGUUCAUCGAAUUUUCGGCGGAUGCCUCCAAA [G29A U47C] | 0.000269 ± 1.9e-05 | 1400 ± 310 | 8.17e-05 ± 2.3e-05 | 0.000223 ± 9.2e-05 | 0.000233 ± 3.2e-05 |  | 
AUAAAAGCGCCAGAACUACAGAAAUGUAAUUGACGAGGAGGAGGUUAAUCGAAUUUUCGGCGGAUGCCUCCAAA [G29A U47A] | 0.00354 ± 0.0016 |  | 0.000727 ± 0.00012 | 0.00153 ± 0.00024 | 0.00308 ± 0.00042 | 0.000101 ± 1.2e-05 | 0.000152 ± 2.6e-05
AUAAAAGCGCCAGAACUACAGAAAUGUAAUGGACGAGGAGGAGGUUUAUCGAAUUUUCGGCGGAUGCCUCCAAA [G29A U31G] | 0.000319 ± 2.2e-05 | 1380 ± 180 | 9.51e-05 ± 1.6e-05 | 0.000217 ± 3.4e-05 | 0.000272 ± 5.4e-05 |  | 3.63e-05 ± 1e-05
AUAAAAGCGCCAGAACUACAGAAAUGUAAUUGACGAGGAGUAGGUUUAUCGAAUUUUCGGCGGAUGCCUCCAAA [G29A G41U] | 9.86e-05 ± 5e-06 | 1050 ± 200 | 3.55e-05 ± 1.5e-05 | 7.35e-05 ± 1.6e-05 | 8.74e-05 ± 1.5e-05 |  | 
AUAAAAGCGCCAGAACUACAGAAAUGUAAUUGACGAGGAGGAGGUUUAUCGAUUUUUCGGCGGAUGCCUCCAAA [G29A A53U] | 0.00212 ± 0.00065 |  | 0.000595 ± 9.3e-05 | 0.00129 ± 0.00019 | 0.00276 ± 0.00055 | 9.5e-05 ± 1.9e-05 | 0.000233 ± 5.5e-05
AUAAAAGCGCCAGAACUACAGAAAUGUAAUUGACGAGGAGGAGGUUUAUCGAAUAUUCGGCGGAUGCCUCCAAA [G29A U55A] | 0.00461 ± 0.0011 | 1320 ± 440 | 0.00123 ± 0.00015 | 0.00332 ± 0.00066 | 0.00456 ± 0.00065 | 0.000165 ± 2e-05 | 0.000532 ± 9.2e-05
AUAAAAGCGCCAGAACUACAGAAAUGUAAUUGACGAUGAGGAGGUUUAUCGAAUUUUCGGCGGAUGCCUCCAAA [G29A G37U] | < 1e-05 |  |  |  |  |  | 
AUAAAAGCGCCAGAACUACAGAAAUGUAAUUGACGAGGAGGAGGUUUAUCGAAGUUUCGGCGGAUGCCUCCAAA [G29A U54G] | 0.00345 ± 0.00074 | 2790 ± 830 | 0.000767 ± 0.00012 | 0.00138 ± 0.00023 | 0.00293 ± 0.00042 | 5.97e-05 ± 1.1e-05 | 0.000165 ± 2.7e-05
AUAAAAGCGCCAGAACUACAGAAAUGUAAUUAACGAGGAGGAGGUUUAUCGAAUUUUCGGCGGAUGCCUCCAAA [G29A G32A] | 0.00111 ± 7.1e-05 | 2000 ± 220 | 0.000239 ± 6.2e-05 | 0.000588 ± 0.00013 | 0.000945 ± 0.00013 | 2.33e-05 ± 8.5e-06 | 8.75e-05 ± 1.7e-05
AUAAAAGCGCCAGAACUACAGAAAUGUAAUUCACGAGGAGGAGGUUUAUCGAAUUUUCGGCGGAUGCCUCCAAA [G29A G32C] | 0.000144 ± 1.8e-05 | 5140 ± 1500 |  | 5.01e-05 ± 9.3e-06 | 9.45e-05 ± 9.1e-06 |  | 
AUAAAAGCGCCAGAACUACAGAAAUGUAAUUGACGAGGAGGAGGUUUAUCGAAUUUUCGGCGGAUGCCUACAAA [G29A C70A] | 3.87e-05 ± 5e-06 |  | 4.17e-05 ± 1.5e-05 | 4.02e-05 ± 1.1e-05 | 2.96e-05 ± 1.4e-05 |  | 
AUAAAAGCGCCAGAACUACAGAAAUGUAAUUGACGAGGAGGAGGUUUAUCGAAUUUUCGGCGGAUGCAUCCAAA [G29A C68A] | 1.61e-05 ± 4.9e-06 |  |  |  |  | < 1e-05 | 
AUAAAAGCGCCAGAACUACAGAAAUGUAAUUGACGAGGAGGAGGUGUAUCGAAUUUUCGGCGGAUGCCUCCAAA [G29A U46G] | 0.00124 ± 0.00055 |  | 0.000243 ± 4.1e-05 | 0.000425 ± 7.7e-05 | 0.00128 ± 0.00027 |  | 5.62e-05 ± 1.3e-05
